Patent US20100204147A1, “Methods For Delivering Thymosin Beta 4, Analogues, Isoforms and Other Derivatives” (REGENERX BIOPHARMACEUTICALS, INC., priority 2003, published 2010)

Assays:
[1] = target: T1, recombinant γ-module (residues γ148-411) (Homo sapiens, UniProt P02679); assay: ELISA and kinetic analysis of incorporation into immobilized γ-module; type: biochemical
T1 construct: comprising residues 148-411 of the human fibrinogen γ chain; made in house; host or cells: E. coli, pET20b expression vector
T1 sequence (P02679 174-437 isoform P02679-2): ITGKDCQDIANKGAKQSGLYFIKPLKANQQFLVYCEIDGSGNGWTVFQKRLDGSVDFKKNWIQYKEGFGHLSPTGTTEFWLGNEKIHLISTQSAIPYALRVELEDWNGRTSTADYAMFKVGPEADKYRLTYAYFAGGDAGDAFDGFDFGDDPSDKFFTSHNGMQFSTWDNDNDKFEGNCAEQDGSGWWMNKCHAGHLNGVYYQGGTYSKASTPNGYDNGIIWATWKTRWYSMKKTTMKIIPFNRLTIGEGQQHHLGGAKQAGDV
Procedure: (§1) The interaction between thymosin β4 and fibrin(ogen) and its fragments in the presence or absence of FXIIIa was studies by ELISA using plastic microliter plates. Wells of microliter plates were coated overnight at […] with fibrinogen and fibrin at 10 μg/mL or with the recombinant fragments of 20 μg/ml, all in 0.1 M NaHCO3 buffer, pH 8.3. Fibrin was made by addition to the wells of a mixture containing 10 μg/mL fibrinogen 1 NIH u/ml thrombin and 400 u/ml aprotinin, followed by overnight incubation at +4° C. The wells were then blocked by incubation with Super Blocker (Pierce) at 37° C. for 1 h. Following washing with TBS containing 0.05% Tween-20 (TBS-Tween), the indicated concentrations of thymosin β4, FXIII, FXIIIa(Thr) and FXIIIa(Ca) were added to the wells and incubated for 2-2.5 h at 37° C. Bound (incorporated) thymosin β4 was detected by the reaction with rabbit anti-thymosin β4 serum and peroxidase-conjugated anti-rabbit IgG. A TMB Microwell Peroxidase Substrase was added to the wells, and the incorporated thymosin β4 was measured spectrophotometrically at 450 nm.
To analyze kinetics of the incorporation of thymosin β4 into different fibrin(ogen) fragments, they were immobilized onto the wells of microliter plates (as described above, except that the concentration of all fragments was 20 μg/mL) and incubated with several concentrations of thymosin β4 in the presence of 10 μg/L thrombin-activated factor XIIIa. The incubation mixtures were inhibited every 15 min during 1 hour of incubation by the addition of iodacetamide to final concentration 10 mM. Incorporated thymosin β4 at each time point was detected with rabbit anti-thymosin β4 serum as described above. The initial rates of the reaction of incorporation (V) at different concentrations of thymosin β4 were determined from the slopes of the reaction time course plots and expressed as tangent α=A450/t (min), where A450 represents absorbance at 450 nm in optical units (o.u) which is proportional to the amount of incorporated thymosin β4. […]

fibrinogen = target: T2, fibrinogen (Homo sapiens, UniProt P02671); assay: Solid-phase binding assay (ELISA), immobilized fibrinogen
T2 construct: purchased Enzyme Research Laboratories (South Bend, Ind.)
T2 sequence (P02671 20-644 isoform P02671-2 limits assumed): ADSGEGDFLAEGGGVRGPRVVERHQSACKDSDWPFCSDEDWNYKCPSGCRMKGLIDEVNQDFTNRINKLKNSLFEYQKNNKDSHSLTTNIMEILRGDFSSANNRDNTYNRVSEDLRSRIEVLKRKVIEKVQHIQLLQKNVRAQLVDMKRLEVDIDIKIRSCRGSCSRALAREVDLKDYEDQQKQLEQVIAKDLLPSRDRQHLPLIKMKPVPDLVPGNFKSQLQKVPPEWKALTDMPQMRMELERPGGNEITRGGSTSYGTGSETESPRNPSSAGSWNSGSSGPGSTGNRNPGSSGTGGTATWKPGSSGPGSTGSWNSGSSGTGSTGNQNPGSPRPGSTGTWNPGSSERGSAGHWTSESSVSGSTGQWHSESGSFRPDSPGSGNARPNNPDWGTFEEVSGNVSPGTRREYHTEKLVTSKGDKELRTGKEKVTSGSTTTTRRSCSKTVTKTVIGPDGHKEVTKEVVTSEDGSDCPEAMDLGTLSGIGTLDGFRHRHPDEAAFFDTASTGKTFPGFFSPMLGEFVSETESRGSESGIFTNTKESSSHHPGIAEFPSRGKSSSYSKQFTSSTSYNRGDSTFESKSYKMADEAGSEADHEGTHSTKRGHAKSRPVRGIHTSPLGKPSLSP
T2 sequence (P02675 31-491 partner): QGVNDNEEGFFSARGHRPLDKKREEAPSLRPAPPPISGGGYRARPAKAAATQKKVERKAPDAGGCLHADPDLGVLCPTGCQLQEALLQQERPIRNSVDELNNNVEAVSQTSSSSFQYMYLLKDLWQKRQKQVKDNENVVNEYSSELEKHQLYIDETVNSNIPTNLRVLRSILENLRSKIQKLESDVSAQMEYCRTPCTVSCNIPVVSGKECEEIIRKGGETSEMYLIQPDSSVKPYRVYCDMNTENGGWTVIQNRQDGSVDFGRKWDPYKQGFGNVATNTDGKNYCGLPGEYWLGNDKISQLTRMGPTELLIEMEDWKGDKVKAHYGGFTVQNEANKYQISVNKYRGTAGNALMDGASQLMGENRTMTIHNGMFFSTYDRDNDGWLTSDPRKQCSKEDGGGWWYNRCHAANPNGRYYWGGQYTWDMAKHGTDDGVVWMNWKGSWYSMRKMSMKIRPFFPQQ
T2 sequence (P02679 27-437 isoform P02679-2 partner limits assumed): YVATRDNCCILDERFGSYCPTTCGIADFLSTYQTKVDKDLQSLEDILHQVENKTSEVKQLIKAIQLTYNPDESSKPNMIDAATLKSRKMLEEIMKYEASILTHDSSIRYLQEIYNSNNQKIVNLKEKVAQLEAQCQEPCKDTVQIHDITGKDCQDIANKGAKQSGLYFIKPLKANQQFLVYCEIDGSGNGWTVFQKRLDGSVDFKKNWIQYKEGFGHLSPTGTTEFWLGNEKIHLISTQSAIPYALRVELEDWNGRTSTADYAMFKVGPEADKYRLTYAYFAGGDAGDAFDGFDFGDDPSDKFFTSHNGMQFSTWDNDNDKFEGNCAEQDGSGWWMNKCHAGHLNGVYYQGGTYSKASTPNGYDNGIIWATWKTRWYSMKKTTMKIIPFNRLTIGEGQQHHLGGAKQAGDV
Procedure: as §1

- non-covalent interaction with γ-module (ELISA) ([1]; non-activated factor XIII or without it): no significant non-covalent interaction
- incorporation into immobilized γ-module (ELISA) ([1]; presence of factor XIIIa): incorporated effectively
- Km ([1]; thrombin-activated factor XIIIa, Lineweaver-Burk plot, read-out: apparent Michaelis constant (Km) for incorporation into the γ-module): 183 ± 29 µM
- factor XIIIa-mediated incorporation into immobilized fibrinogen (ELISA signal) (fibrinogen; factor XIII activated by CaCl2): the signal substantially increased
- non-covalent interaction with immobilized fibrinogen (ELISA signal) (fibrinogen; thymosin β4 150 μg/mL (30 μm), absence of factor XIII or non-activated factor XIII): no significant non-covalent interaction
Substance: thymosin β4
